Reference: patent US20170152307A1

Legend:
[1] = target: recombinant tau (human), P10636; assay: ELISA, recombinant tau coated on the plate, IgG titrated (Example 7); settings: remark: other sources report otherwise
tau 48-71 (human) = assay: peptide ELISA, biotinylated peptide on streptavidin plate, IgG titrated (Example 14); settings: remark: other sources report otherwise
Chain of tau 48-71 (human) (peptide, as listed by the source limits assumed, form in doubt): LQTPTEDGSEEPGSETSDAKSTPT

Chain of recombinant tau (human), P10636 (P10636 other isoform, or with tags, fused parts or gaps limits assumed): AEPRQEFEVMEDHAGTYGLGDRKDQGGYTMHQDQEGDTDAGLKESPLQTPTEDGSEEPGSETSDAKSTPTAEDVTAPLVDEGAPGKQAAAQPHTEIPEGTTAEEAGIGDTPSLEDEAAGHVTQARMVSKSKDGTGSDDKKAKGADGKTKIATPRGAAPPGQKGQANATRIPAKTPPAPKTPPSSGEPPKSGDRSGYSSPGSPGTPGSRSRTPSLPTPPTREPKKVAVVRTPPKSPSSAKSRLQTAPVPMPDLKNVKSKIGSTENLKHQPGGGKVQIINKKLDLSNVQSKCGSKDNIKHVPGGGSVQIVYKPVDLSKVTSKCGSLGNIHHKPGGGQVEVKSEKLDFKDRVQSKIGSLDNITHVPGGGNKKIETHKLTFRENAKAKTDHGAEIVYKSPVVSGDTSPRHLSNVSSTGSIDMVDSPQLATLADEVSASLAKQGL

B1: CBTAU-28.1 (antibody, human IgG1, V domains shown)
VH: QVQLQQSGAEVKKPGESLKISCEASGYSFTNYWIGWVRQMPGKGLEWMGIIYPGDSDTRYSPPFQGQVTITADRSITTAYLEWSSLKASDTAMYYCARVGRPSKGGWFDPWGQGTLVTVSS
VL: DIQMTQSPDSLAVSLGERATINCESSQTLLYSSNEKNYLAWYQQKPGQPPKLLISWASTPESGVPDRFSGSGSGTSFTLTISSLQAEDVAVYYCQQYYNSPYTFGQGTRLEIK
EC50 (read off the curve) [1]: 0.008 µg/mL
EC50 (read off the curve) (tau 48-71 (human)): 0.06 µg/mL
